Data as given in the nanobody polyreactivity screen of Harvey et al. (2022).

Test: yeast display, Sf9 membrane polyspecificity reagent, FACS + sequencing; frameworks hold sequencing errors
Outline: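 In a synthetic yeast display library (Saccharomyces cerevisiae BJ5465), nanobody expression was induced with galactose for 36–48 hours. FACS gates were set low and high (top ~1%) using anti-HA fluorescence for expression and streptavidin fluorescence for binding of the Sf9 membrane reagent. Each polyreactivity label is drawn from the gate of origin.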

Row | Sequence | polyreactivity (PSR sort gate)
1 | QVQLVESGGGLVQAGGSLRLSCAASGRIFKDNAMGWYRQAPGKERELVATIDSGGDTNYADSVKGRFTISRDNAKNTVYLQMNSLKPEDTAVYYCNTEGFLSAVYAFGYWGQGTQVTVSS | low polyreactivity
2 | QVQLVESGGGLVQAGGSLRLSCAASGIIFDYNAMGWYRQAPGKERELVAAISGRSGRTYYADSVKGRFTISRDNAKNTVYLQMNSLKPEDTAVYYCAARWYAGGNYWGQGTQVTVSS | high polyreactivity
3 | QVQLEESGGGLVQAGGSLRLSCAASGRSFNHNAMGWYRQAPGKERELVAAINQSGSSTYYADSVKGRFTISRDNAKNTVYLQMNSLKREDTAVYYCAAVCNGVDYEYWGQGTQVTVSS | low polyreactivity
4 | QVQLVESGGGLVQAGGSLRLSCAASGSIFVIYAMGWYRQAPGKERELVATISGGGGTNYADSVKGRFTISRDNAKNTVYLQMNSLNPEDTAVYYCAARSKVHRWRKRYDYWGQGTQVTVSS | high polyreactivity
5 | QVQLVESGGGLVQAGGSLRVSCAASGYTIKYYAMGWYRQAPGKERELVAAISKDGGSTYYADSVKGRFTISRDNAKNTVYLQMNSLKPEDTAVYYCAAKSNVRYGWREFYWGQGTQVTVSS | high polyreactivity
6 | QVQLVESGGGLVQAGGSLRLSCAASGITFYLNAMGWYRQAPGKERELVADITVSGGSTYYADSVKGRFTISRDNAKNTVYLQMNSLKREDTAVYYCAADLTISYSQEYYYWGQGTQVTVSS | low polyreactivity
7 | QVQLVESGGGLVQARRSLRLSCAASGITFVFYTMGWYRQAPGKERELVAAITSSGVRTSYADSVKGRFTISRDNAMNTVYLQMNSLKPEDTAVYYCAAKPTYVHKPGYNYWGQGTQVTVSS | high polyreactivity
8 | QVQLVESGRGLVQAGGSLRLSCAASGIFTRYAMGWYRQAPGKERELVAAISRGGGSTYYADSVKGSFTISRDNAKNTVYLQMNSLKPEDTAVYYCAADNSPRPYDYWGQGTQVTVSS | high polyreactivity
9 | QVQLVESGGGLVQAGGSLRLSCAASGSTFAGNAMGWSRQAPGKERELVAGITSSGARTYYADSVKGRFTISRDNAKNTVYLQMNSLKPEDTAVYYCNKYHFSPYDYWGQGTQVTVSS | high polyreactivity
10 | QVQLVESGGGLVQAGGSLRLSCAASGNTFAGNAMGWYRPAPGKERELVAAISRSGVTTRYADSVKGRVTISRDNAKHTVYLQMNSLKPEDTAVYYCNADPRLRQTRDYWGQGTQVTVSS | high polyreactivity
11 | QVQLVESGGGLVQAGGSLRLSCAASGNIFRYYVMGLYRQAAGKEREFVAAITSSGGSTYYADSVKGRFTISRDNAKKTVYLQMNSLKPEDTAVYYCAKDYWDPGWAEYDYWGQGTQVTVSS | low polyreactivity
12 | QVQLVESGGGLVQAGGSLRLSCAASGSIISGYAMGWYRQAPGQERELVAAISRSGGRTYYADSVKGRFTISRDNAKNTVYLQMNSLKPEETAVYYCAAKIYIPRGYDYWGQGTQVTVSS | high polyreactivity
13 | QVQLVESGGGLVQAGGSLRLSCAASGFIFGYYAMGWYRQAPRKERELVAAISQSTGSTYYADSVKGRFSNSRDNAKNTVYLQMNSLKPEDTAVYYCNAEGPEVTTWGYVYWDWGYGYWGQGTQVTVSS | low polyreactivity
14 | QVHLVESAGGLVQAGGSLRLSCDASGFIFPRYDMGSYRQAPGKEREMVAAISRRGGSTNYADSVKGRFTISRDNAKNTVYLQMNSLKPEATAVYYCNADTTGYSSYGYDYWGQGSQVTVSS | high polyreactivity
15 | QVQLQESGGGLVQAGGSLRLSSAASGPISRRSTMGWYRQAPGKERELVTAITRGTNTNYADSVKGRFTISRDNAMNTEYLQMNSLKPEDTAVYYCAAYGVLKPSRGDAVFHRYWGQGTQVTVSS | low polyreactivity
16 | QVQLVESGGGLVQAGGSLRLSCAASGLTFIYYAMGWYRQAPGKERELVAAISVSGGSTSYADSVKGRFTISRDNAKNTVYLQMNSLKPEDTAVYYCAADWFVHKPRYQYSFDYWGQGTQVTVSS | low polyreactivity
17 | QVQLVESGGGLVQAGGSLRLSCAASGSTFTYYAMGWYSQAPGKERELVARIRASGGSTYYADSVKGRFTISRDTAKNTDYLQMNSLKPEDTAVYYCAAQLYFLYRTYDYWGQGTQVTVSS | high polyreactivity
18 | QVQLVESVGGLVQAGGSLRLSCAASGFTFYTYAMGWYRQAPGKERELVAAINQRGGRTYYADSVKGRFTISRDNAKNTVYLQMNSLKPEDTAVYYCAKSPPPKTRYDYWGQGTQVTVSS | high polyreactivity
19 | QVQLVESGGGLVQAGGSLSLSCAASGSIFYHNAMGWYRQAPGKERELVAAITGSGGSTYYADSVKGRFTISRDNAKNTVYLQMNSLKPEDTAVYYCAAVQLYQKHQITYVAHEYWGQGTQVTVSS | low polyreactivity
20 | QVQLVESGGGLVQAGGSLRLSCAASGSIFGRYAMGWYRQAPGKERELVANITSGDSTNYADSVKGRFTISRDNAKNTVYLQMNSRKPEDTAVYYCAAYRIGQYDYWGQGTQVTVSS | high polyreactivity
21 | QVQLVESGGGLVQAGGSLRLSCAASGLTFAYNTMGWYRQAPGKEREFVASISSSGGNTYYADAVKGRFTISRDNAKNTVYLQMNSLKPEDTAVYYCAAKKKYHYFASYKRFEYWGQGTQVTVSS | low polyreactivity

Row | Sequence | polyreactivity (PSR sort gate)
22 | QVQLVESGGGLVQAGGSLRLSCPASGFTFYYYAMGWYRQAPGKERELVAAISYSGGSTYYADSVKGRFTISRDNAKNTVYLQMNRLKPEDTAVYYCAADLSTYRRGFDYWGQGTQVTVSS | high polyreactivity
23 | QVQLVESGGGLVQAGGSLRLSCAASGSTIDYYAMGWYRQAPGKERELVATISRGGSTNYADSVKGRFTISRDNAKNTVYLQMNSLKPEDTAVYYCAATYARYFYKYYYWGQGTQVTVSS | high polyreactivity
24 | QVQLVESGGGLVQAGGSLRLSCAASGSNFSYNAMGWYRQAPGKERELVATITTGGRTSYADSVKGRFTISRDNAKNTVYLQMNSLKPEDTAVYYCAAVGRFSSRPRVVYYGYDYWGQGTQVTVSS | low polyreactivity
25 | QVQLVESGGGLVQAGGSLRLSCAASGRTFYVNAMGWYRQAPGKERELVARISSSGITYYADSVKGRFTISRDNAKNSVSLQMNSLKPEDTAVYYCAAGPWFYYWGLGTQVTVSS | low polyreactivity
26 | QVQLVESGGGLVQAGGSLRLSCAASGFTFHHYAMGWYRQAPGKERELVAAITRSGGTTYYADSVKGRFTISRDNAKNTVYLQMNRLKPEDTAVYYCAADTGAKRYYRYDYWGQGTQVTVSS | high polyreactivity
27 | QVQLVESGGGLVQAGGSLRISCAASGRTCNHYTMGWYRPAPGKERELVAAITSGGSTYYADSVKGRFTISRDNAKNTVYLQMNSLKPEDTAVYYCARVRPLYHYSRYDYWGQGTQVTVSS | high polyreactivity
28 | QVQLVESGGGLVQAGGSLRLSCAASGLTFANYAMGWYRQAPGKERELVAAISTWSGGSTYYADSVKGRFTISRDNAKNTVYLQMNSLKPEDTAVYYCAARRYSRGRLPYDYGGQGTQVTVSS | high polyreactivity
29 | QVQLGESGGGFVQAGGSLRLSCAASGFIFAPYAMGWYRHAPGKERELDAFISWSGGRTYYADSVKGRFTLSRDKAKNTVYLLMNSLNPEDTAVYYCNARGSRRGGPGYEYWGQGTQVTVSS | high polyreactivity
30 | QVQLVESGGGLVQAGGSLRLSCAASGLIFDGYAMGWYRQAPGKERELVAAISRSGSRTYYADSVKGRFTISRDNAKNTVYLQMNSLKPEDTAVYYCAADAYNYPELDYWGQGTQVTVSS | high polyreactivity
31 | QVQHVESGGGLVQAGGSLRLSCAASGIIFGTNALGWYRQAPGKERELVAYITSGGSTYADSVKGRFTISRDNAKNTVYLQMNSLKPEDTAVYYCAAYVFWAFYEYDYWGQGTQVTVSS | low polyreactivity
32 | QVQLVESGGGLVQAGGSLRLSCAASAIIFDGNTMGWYRQAPGKEREFVAAISRNGGTTSYADSVKGRFTISRDNAKNTVYLQMNSLKPEDTAVYYCAADVETFWGWRYEYWGQGTQVTVSS | low polyreactivity
33 | QVQLVESGGRLVQAGGILRLSCAASGRIFNRYAMGWSRQAPGKEREFVARITGSGGRTYYADSVKGRFTISRDNAKNTVYLQMNSLKPEDTAVYYCARDRGYQSGYDFWGQGSQVTVSS | high polyreactivity
34 | QVQLVESGGGLVQAGGSLRLSCAASGRTFYAYVMGWYRQAPGKERELVAAISGGGRTYYADSVKGRFTISRDNAKNTVYLQMNSLKPEDTAVYYCAAVSLWYSAYEYWGQGTQVTVSS | high polyreactivity
35 | QVQLVESGGGLVQAGGSLRLSCAASGFTFIRNGMGWYRQAPGKERELVAAINSRGGNTYYADSVKGRFTISRDNAKNTVYLQMNSLKPEDTAVYYCNRVVQRWSTQYGYWGQGTQVTVSS | high polyreactivity
36 | QVQLQETGGGLVQAGGSLRQSCAASRSISPWSYMGRYRQAPGKEREFVASINAGTNTYYADSAKGRITISRDNAKNTVYLQMNSLKPEDTAAYYCAARYWNDYYFPYWGQGTEVTVSS | low polyreactivity
37 | QVQLVESGGGLVQAGGSLRLSCAASGRTFKYYAMGWYRQAPGKERELVATINYSGGGTYYADSVKRRFTSSRDNAKNTVYLQMNSLKPEDTAVYYCAATRYSFGPRRVDYWGQGTQVTVSS | high polyreactivity
38 | QVQLVESGGGLVQAGGSLRLSCAASGSTFLGYAMGWYRQAPGKERELVAAITYSAGSTYYADSVKGRFTISRDNAKNTVYLQMNSLKPEDTAVYYSAKRYSGYDHWGQGTQVTVSS | low polyreactivity
39 | QVQLVESGGGLVQAGGSLRLSCAASGGIFSVYAMGLYRQAPGKERELVASITVSGGSTSYADSVKGRFTISRDNAKNTVYLQMNSLKPEDTAVYYCNTDFGQAHTLSWYEDMDYWGQGTQVTVSS | low polyreactivity
40 | QVQLVESGGGLVQAGGSLRLSCAASGNIFRKNAMGWYRQAPGKERELVAAISRRGGNTYYADSVKGRFTISRDNAKNTVYLQMNSLKPEDTAVYYCAADWSPTAASDYWGQGTQVTVSS | high polyreactivity
41 | QVQLVESGGGLVQAGGSLRLSCAASGRIDLDYDMGWYRPAAGKERELVATISSGGSTNYADSVKGRFTISRDNAKNTVYLQMNSLKPDDTAVYYCNKDYHVRYYYWGQGTQVTVSS | low polyreactivity
